Measured values from US20230158141A1.

Columns and labels:
[1] = target: His tagged CD20 protein (UniProt P11836); assay: ELISA, His tagged CD20 protein
[2] = target: His tagged VEGF protein (UniProt P15692); assay: ELISA, His tagged VEGF protein
Chain of His tagged VEGF protein (P15692 other isoform, or with tags, fused parts or gaps limits assumed): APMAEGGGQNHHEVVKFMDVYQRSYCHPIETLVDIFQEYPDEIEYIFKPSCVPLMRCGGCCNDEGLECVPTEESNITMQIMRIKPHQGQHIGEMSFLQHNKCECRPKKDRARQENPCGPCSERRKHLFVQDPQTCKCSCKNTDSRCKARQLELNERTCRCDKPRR

Row | Blocking efficiency of S47 [1] | Blocking efficiency of S47 [2] | Binder
1 | 16 fold | – | Ritu-se001 conjugated to S47 (antibody, human IgG1, kappa, V domains shown, S47 on Cys 32) VH: QVQLQQPGAELVKPGASVKMSCKASGYTFTSCNMHWVKQTPGRGLEWIGAIYPGNGDTSYNQKFKGKATLTADKSSSTAYMQLSSLTSEDSAVYYCARSTYYGGDWYFNVWGAGTTVTVSA VL: QIVLSQSPAILSASPGEKVTMTCRASSSVSYIHWFQQKPGSSPKPWIYATSNLASGVPVRFSGSGSGTSYSLTISRVEAEDAATYYCQQWTSNPPTFGGGTKLEIKR
2 | 8 fold | – | Ritu-se002 conjugated to S47 (antibody, human IgG1, kappa, V domains shown, S47 on Cys 63) VH: QVQLQQPGAELVKPGASVKMSCKASGYTFTSYNMHWVKQTPGRGLEWIGAIYPGNGDTSYNQCFKGKATLTADKSSSTAYMQLSSLTSEDSAVYYCARSTYYGGDWYFNVWGAGTTVTVSA VL: QIVLSQSPAILSASPGEKVTMTCRASSSVSYIHWFQQKPGSSPKPWIYATSNLASGVPVRFSGSGSGTSYSLTISRVEAEDAATYYCQQWTSNPPTFGGGTKLEIKR
3 | – | 26 fold | Beva-se003 conjugated to S47 (antibody, human IgG1, kappa, V domains shown, S47 on Cys 49) VH: EVQLVESGGGLVQPGGSLRLSCAASGYTFTNYGMNWVRQAPGKGLEWVGWINTYTGEPTYAADFKRRFTFSLDTSKSTAYLQMNSLRAEDTAVYYCAKYPHYYGSSHWYFDVWGQGTLVTVSS VL: DIQMTQSPSSLSASVGDRVTITCSASQDISNYLNWYQQKPGKAPKVLICFTSSLHSGVPSRFSGSGSGTDFTLTISSLQPEDFATYYCQQYSTVPWTFGQGTKVEIKR

Further lines, the binder ahead of its results:

Row | Binder | Blocking efficiency of S47 [1] | Blocking efficiency of S47 [2]
4 | Beva-se002 conjugated to S47 (antibody, human IgG1, kappa, V domains shown, S47 on Cys 26) VH: EVQLVESGGGLVQPGGSLRLSCAASGYTFTNYGMNWVRQAPGKGLEWVGWINTYTGEPTYAADFKRRFTFSLDTSKSTAYLQMNSLRAEDTAVYYCAKYPHYYGSSHWYFDVWGQGTLVTVSS VL: DIQMTQSPSSLSASVGDRVTITCSACQDISNYLNWYQQKPGKAPKVLIYFTSSLHSGVPSRFSGSGSGTDFTLTISSLQPEDFATYYCQQYSTVPWTFGQGTKVEIKR | – | 16 fold
5 | Beva -se004 conjugated to S47 (antibody, human IgG1, kappa, V domains shown, S47 on Cys 51) VH: EVQLVESGGGLVQPGGSLRLSCAASGYTFTNYGMNWVRQAPGKGLEWVGWINTYTGEPTYAADFKRRFTFSLDTSKSTAYLQMNSLRAEDTAVYYCAKYPHYYGSSHWYFDVWGQGTLVTVSS VL: DIQMTQSPSSLSASVGDRVTITCSASQDISNYLNWYQQKPGKAPKVLIYFCSSLHSGVPSRFSGSGSGTDFTLTISSLQPEDFATYYCQQYSTVPWTFGQGTKVEIKR | – | 13 fold
